B1: S100A14 (parent)
chain: KIANLGSCNDSKLEFRSFWELIGE

Variants of: B1
Experiment: protein stability index of a GFP-peptide fusion (GPS, HEK-293T) (PSI 1-6); higher = more stable
Settings: c terminus: a fixed tail appended
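Note: lentivirally expressed fusions sorted by FACS into six bins by GFP to DsRed ratio, PSI derived from sequencing read proportions per bin multiplied by bin number.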

Protein stability index: each site, then its substitutions
K12: F 2.76, W 2.47, G 1.59, P 1.95, T 3, A 2.02, D 2.24, M 2.21, N 2.29, E 3.21, I 1.8, S 1.96, R 2.56, C 2.01, H 2.35, Y 3, Q 1.26, V 2.47, L 1.72
S7: V 2.58, Y 1.83, P 2.5, L 1.79, M 1.62, W 1.89, R 2.03, G 1.62, K 1.44, Q 1.68, F 2.13, H 2.25, E 1.87, N 2.32, T 1.71, I 1.89
F15: W 2.75, P 2.42, D 2.51, C 1.75, A 2.06, R 2.7, V 2.56, M 2.25, H 2.14, T 2.1, N 2.22, L 1.06, S 2.04, E 2.65, K 1.88, I 2.24, Y 1.63, G 1.92, Q 2.25
E20: C 2.79, G 1.4, S 1.94, H 2.15, V 1.73, Y 2.73, T 1.59, P 1.64, L 2.77, D 2.56, R 2.45, A 1.64, F 2.77, K 2.22, M 3.34, N 2.29, I 2.29, Q 1.62
I22: L 1.94, H 1.9, M 1.82, Q 2.24, A 2.59, D 2.65, F 2.95, V 1.79, K 2.32, T 2.25, R 1.98, S 2.28, C 1.9, E 3.19, N 2.61, Y 2, W 1.67, P 2.29, G 2.32
E24: D 2.15, W 2.1, S 1.78, F 1.88, I 2.86, L 1.05, Y 1.84, C 1.53, A 2.15, G 1.36, R 1.37, K 2.06, M 2.27, T 1.9, Q 2.11, P 1.7, N 2.17, H 2.8
S17: Y 1.84, M 1.29, G 1.33, T 2.75, E 1.87, H 1.46, N 1.5, Q 2.75, D 1.95, L 2.86, C 2.16, I 2.45, P 1.65, R 1.34, K 2.2, F 2.52, A 3.38, W 2.28
C8: D 2.63, N 1.68, H 1.22, P 1.79, L 1.49, K 1.55, E 1.97, M 1.51, S 1.99, I 3.2, V 2.08, T 1.76, Q 1.68, R 2.07, W 1.12, G 2.24, F 1.56, A 1.77
E14: L 2.08, M 2.13, S 1.8, I 2.54, F 1.89, R 2.7, H 1.71, N 1.54, Y 2.01, P 1.61, W 1.08, K 1.47, C 1.48, G 1.57, D 1.89, A 1.81, V 1.6, Q 2.06, T 1.43
L21: G 2.33, N 2.55, F 2.16, I 1.54, P 2.59, T 2, D 2.57, S 1.86, C 1.62, Q 1.76, V 1.63, K 1.86, M 1.23, Y 2.23, E 2.08, H 1.9, A 2.74, W 1.18, R 1.94
R16: S 2.65, N 2.13, D 2.11, W 2.25, Q 1.98, A 1.28, F 1.42, V 2.3, P 2.28, G 1.54, T 1.61, H 2.77, K 1.36, L 3.03, C 1.66, M 1.78, E 1.92, Y 2.44, I 1.97
S11: H 1.62, N 2.21, F 2.39, W 1.18, P 2.81, M 1.4, D 1.89, V 2.42, G 1.53, I 1.75, E 1.68, Q 2.08, A 2.38, L 1.52, C 2.62, R 2, T 1.56, Y 1.59, K 1.69
L13: P 2.5, D 2.17, F 2.21, E 1.71, R 1.5, Y 2.12, V 1.83, N 1.88, S 2.52, W 2.31, A 2.17, G 2.18, M 2.03, H 2.12, T 2.24, K 2.04, C 1.21, Q 1.92, I 2.13
N9: F 1.86, T 1.56, V 2.01, Y 1.91, R 1.47, D 1.59, Q 1.77, H 1.8, K 2.23, M 1.97, P 1.98, I 1.69, E 2.19, C 1.75, S 1.08, G 2.22, W 1.83, A 2.06
W19: I 1.97, H 2.74, N 2.71, L 1.56, A 1.89, Q 1.73, Y 1.78, M 1.79, F 2.03, T 2.29, S 1.87, K 2.11, C 1.46, R 2.09, P 3.25, E 3.25, D 3.58, V 3.86, G 2.68
G23: F 1.44, Q 2.19, T 2.28, S 1.87, K 1.82, D 1.75, N 2.21, W 2.66, H 2.29, R 1.45, L 1.62, Y 1.75, M 2.25, E 2.15, A 1.89, I 1.86, C 1.73, V 2.18, P 2.04
F18: I 1.85, W 2.16, K 2.07, Y 1.97, L 2.57, C 2.11, P 2.27, V 1.52, M 1.63, T 1.89, S 2.08, E 2.66, D 3.52, H 2.82, A 2.2, G 2.43, R 2.5, N 2.73, Q 1.98
D10: H 2.31, Y 1.63, V 2.32, M 2.85, A 1.66, Q 1.7, F 1.92, R 1.74, E 2.21, C 1.95, T 1.95, P 1.64, N 2.39, K 1.98, W 3.28, G 2.84, L 2.55, I 1.72, S 2.4
